Patent publication US20070196374A1 (published 2007)

Key:
[1] = biological target: T1, VEGF (human, UniProt P15692-4 27-191, limits assumed); assay: BIAcore-2000 SPR
T1 construct: also called vascular endothelial growth factor; biotinylated VEGF
Experimental: (§1) The VEGF-binding affinities of Fab fragments were calculated from association and dissociation rate constants measured using a BIAcore-2000™ surface plasmon resonance system (BIAcore, Inc., Piscataway, N.J.). A biosensor chip was activated for covalent coupling of VEGF using N-ethyl-N′-(3-dimethylaminopropyl)-carbodiimide hydrochloride (EDC) and N-hydroxysuccinimide (NHS) according to the supplier's (BIAcore, Inc., Piscataway, N.J.) instructions. VEGF was buffered exchanged into 20 mM sodium acetate, pH 4.8 and diluted toapproximately 50 μg/mL. An aliquot (35 μL) was injected at a flow rate of 2 μL/min to achieve approximately 700-1400 response units (RU) of coupled protein. Finally, 1 M ethanolamine was injected as a blocking agent.
(§2) For kinetics measurements, two-fold serial dilutions of Fab were injected in PBS/TWEEN™ buffer (0.05% TWEEN 20™ in phosphate buffered saline) at 25° C. at a flow rate of 10 μL/min. […] Equilibrium dissociation constants, Kd's from surface plasmon resonance (SPR) measurements were calculated as koff/kon.

[2] = biological target: T1, VEGF; assay: BIAcore-2000 SPR, wt = Y0192
Experimental: as §1, §2

[3] = biological target: rhVEGF165 (human, UniProt P15692 27-191); assay: cell-based or functional assay

| Binder | Kd [1] | Kd (wt)/Kd [2] | potency in the HuVEC assay relative to the wild-type Fab (Y0192) [3] |
| --- | --- | --- | --- |
| Y0238-3 (Fab, V domains shown, Soluble Fab from E. coli 34B8) VH: EVQLVESGGGLVQPGGSLRLSCAASGYTFTNYGINWVRQAPGKGLEWVGWINTYTGEPTYAADFKRRFTFSLDTSKSTAYLQMNSLRAEDTAVYYCAKYPYYYGTSHWYFDVWGQGTL VL: DIQLTQSPSSLSASVGDRVTITCRANEQLSNYLNWYQQKPGKAPKVLIYFTSSLHSGVPSRFSGSGSGTDFTLTISSLQPEDFATYYCQQYSTVPWTFGQGTKVEIKR | 150 pM | ≥ 14 ratio | – |
| Y0313-1 (Fab, V domains shown, Y0243-1 with VH3 H101Y and S105T; soluble Fab) VH: EVQLVESGGGLVQPGGSLRLSCAASGYDFTHYGMNWVRQAPGKGLEWVGWINTYTGEPTYAADFKRRFTFSLDTSKSTAYLQMNSLRAEDTAVYYCAKYPYYYGTSHWYFDVWGQGTL VL: DIQLTQSPSSLSASVGDRVTITCRANEQLSNYLNWYQQKPGKAPKVLIYFTSSLHSGVPSRFSGSGSGTDFTLTISSLQPEDFATYYCQQYSTVPWTFGQGTKVEIKR | – | ≥ 20 ratio | > 30 fold |
